We go through one molecule from publication doi:10.1101/2022.04.21.488985 (bioRxiv, 2022).

For this test, the target named is T1, bovine serum albumin (Bos taurus, UniProt P02769).
T1 construct: also called BSA
Nature of the test: ELISA.

T1 sequence (P02769 25-607): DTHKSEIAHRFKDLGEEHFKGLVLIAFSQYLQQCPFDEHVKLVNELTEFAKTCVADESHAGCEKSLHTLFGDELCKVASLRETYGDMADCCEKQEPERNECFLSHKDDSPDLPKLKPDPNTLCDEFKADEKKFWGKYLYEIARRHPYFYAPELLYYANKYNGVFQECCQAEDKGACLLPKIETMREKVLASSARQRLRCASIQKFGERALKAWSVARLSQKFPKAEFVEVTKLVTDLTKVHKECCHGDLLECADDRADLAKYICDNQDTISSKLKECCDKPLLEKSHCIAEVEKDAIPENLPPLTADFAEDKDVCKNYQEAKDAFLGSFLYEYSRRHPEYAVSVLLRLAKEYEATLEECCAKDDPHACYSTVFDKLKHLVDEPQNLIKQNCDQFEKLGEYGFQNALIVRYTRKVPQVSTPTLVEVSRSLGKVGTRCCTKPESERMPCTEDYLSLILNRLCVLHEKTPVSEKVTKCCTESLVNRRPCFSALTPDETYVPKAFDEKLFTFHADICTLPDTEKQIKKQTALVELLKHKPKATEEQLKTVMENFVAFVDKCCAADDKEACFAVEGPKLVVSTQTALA

B1: D5 nanobody (camel VHH) (VHH)
VHH: AWQLVESGGGSVQPGGSLTLTCQASKSTFSTSGMRWERQAQGKGVEFVADISSDSTRKWYSDSVKGRFTISRSNWWRTVTLQMNDLKPEDTARYYCKDLESHHLRGQGTQVTVSS
notes: also called single domain antibody D5
B1: the binding result is recorded as “no binding”.
